Here are results for three molecules from patent publication US20060166284A1 (Bayer, published 2006).

To fix the notation:
T1: human factor VIIa (human, UniProt P08709 61-466)
T1 construct: mature; also called FVIIa
T1 sequence (looked up): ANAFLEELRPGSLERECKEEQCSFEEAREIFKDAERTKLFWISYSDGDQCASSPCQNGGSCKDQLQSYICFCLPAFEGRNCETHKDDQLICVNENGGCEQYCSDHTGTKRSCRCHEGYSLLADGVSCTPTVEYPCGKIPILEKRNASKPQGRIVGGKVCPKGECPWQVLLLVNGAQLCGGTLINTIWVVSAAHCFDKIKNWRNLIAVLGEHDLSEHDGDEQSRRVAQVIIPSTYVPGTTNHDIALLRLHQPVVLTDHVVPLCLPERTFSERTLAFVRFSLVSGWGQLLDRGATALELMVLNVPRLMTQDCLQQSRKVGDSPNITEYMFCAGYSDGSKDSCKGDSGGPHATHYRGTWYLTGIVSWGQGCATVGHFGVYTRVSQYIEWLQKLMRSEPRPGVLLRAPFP

B1: single chain anti-TF antibody scFv(TF)3e10 (scFv)
scFv: EMAQVNLRESGGTLVQPGGSLRLSCAASGFSFTDAWMSWVRQAPGKELEWVSSISGSGGSTYYAGSVKGRFTISRDNSKNTLYLQMNSLRAEDTAVYYCARVLSLTDYYWYGMDVWGQGTLVTVSAGGGGSGAPNFMLTQPHSVSASPGKTVTISCTRSSGSVASYYVQWYQQRPGSSPTTVIYEDNHRPSGVPDRFSGSIDTSSNSASLTISGLKTEDEADYYCQSYDSNNLVVFGGGTKLTVLGAAAGAPVPYPDPLEPRAA
notes: Monomer and dimer forms were separated by gel filtration
B2: recombinant human soluble tissue factor (receptor, UniProt P13726 33-251, looked up)
chain: SGTTNTVAAYNLTWKSTNFKTILEWEPKPVNQVYTVQISTKSGDWKSKCFYTTDTECDLTDEIVKDVKQTYLARVFSYPAGNVESTGSAGEPLYENSPEFTPYLETNLGQPTIQSFEQVGTKVNVTVEDERTLVRRNNTFLSLRDVFGKDLIYTLYYWKSSSSGKKTAKTNTNEFLIDVDKGENYCFSVQAVIPSRTVNRKSTDSPVECMGQEKGEFRE
notes: extracellular domain; also called sTF; soluble TF

The target of series [1] is FVIIa/TF complex on a phospholipid surface (recombinant human TF vesicles with human FVIIa) (UniProt P13726).
In series [2] the target is FVIIa/TF complex on a phospholipid surface (recombinant human TF vesicles with human FVIIa) (human, UniProt P13726 33-295; P08709 61-466). The experiment in a line: cell-based or functional assay.
Series [3] concerns the target B2. The experiment in a line: BIAcore; BIAcore; free sTF, no FVIIa. For orientation: In SPR one partner is held on a chip, and binding of the other changes the refractive index at the surface.
Series [4] addresses T2, FVIIa/TF complex preformed from sTF and FVIIai (human, UniProt P13726 33-251; P08709 61-466, limits assumed, active site inactivated by a chloromethylketone peptide, PPACK (FVIIai)).
T2 construct: extracellular domain;mature; Complex used in the microcalorimetry assay; It was made with a 2.3 fold molar excess of FVIIai over sTF; also called TF/FVIIa complex; sTF/FVIIa complex
The experiment in a line: microcalorimetry (ITC); scFv expressed in mammalian (CHO) cells. As for the experimental part:
(§1) This assay is performed using a MicroCal VP-ITC instrument. […] Data analysis is performed using MicroCal Origin software. The data is fit to a single binding site.

In series [5] the target is T1, human factor VIIa. The experiment in a line: sTF/FVIIa peptide hydrolysis assay (S2266), 2 nM FVIIa, no sTF.
For series [6], the target named is B2. Nature of the series: microcalorimetry (ITC); scFv expressed in mammalian (CHO) cells; free sTF; microcalorimetry; free sTF; mammalian cell expressed scFv. How it is done:
as §1

Series [7] addresses T2, FVIIa/TF complex preformed from sTF and …. The experiment in a line: microcalorimetry (isothermal titration calorimetry), model OneSites, CHO-expressed scFv(TF)3e10 titrated into the preformed sTF/FVIIai complex. How it is done: as §1
On the technique in general: In ITC the heat of successive injections is recorded.

Series [8] shares this target. The experiment in a line: microcalorimetry (ITC); scFv expressed in mammalian (CHO) cells; complex of sTF with FVIIai; microcalorimetry; TF/FVIIa complex; mammalian cell expressed scFv. As for the experimental part:
as §1

Series [9] deals with B2. Nature of the series: microcalorimetry (isothermal titration calorimetry), model OneSites, CHO-expressed scFv(TF)3e10 titrated into sTF; no unit printed in the fit box. As for the experimental part:
as §1

For series [10], the target named is T2, FVIIa/TF complex preformed from sTF and …. The experiment in a line: microcalorimetry (isothermal titration calorimetry), model OneSites, CHO-expressed scFv(TF)3e10 titrated into the preformed sTF/FVIIai complex; no unit printed in the fit box. As for the experimental part: as §1
The target in series [11] is T3, sTF/FVIIa complex (soluble tissue factor with active human FVIIa) (human, UniProt P13726 33-251; P08709 61-466).
T3 construct: extracellular domain;mature; The complex forms in the sTF/FVIIa peptide hydrolysis assay (3 nM sTF, 2 nM FVIIa); also called FVIIa/TF complex; VIIa/TF complex
Nature of the series: sTF/FVIIa peptide hydrolysis assay (3 nM sTF, 2 nM FVIIa); scFv titrated, 4-parameter fit of the rise in rate; bacterially expressed scFv; peptide hydrolysis assay with 3 nM sTF and 2 nM FVIIa present.

In series [12] the target is T1, human factor VIIa. Nature of the series: sTF/FVIIa peptide hydrolysis assay (S2266), 2 nM FVIIa, sTF titrated, apparent KD from a 4-parameter fit; no antibody.

Several values for one entry are separate records, joined by “and”; a condition that tells them apart may be missing. Identical values can stand only once.

Consider human factor X, for which the “Km of FX for the VIIa/TF complex (FX activation assay)” value in [1] is “between 0.061 and 0.099 µM”.
For the molecule B1, the “IC50 for inhibition in the FX activation assay” value in [2] was determined as 0.44 nM. Besides, the Kd in series [3] was determined as 470 nM; in series [6] it was 600 nM; in [8], 33 nM; in series [11], 65 nM. Also, the “fold higher affinity for the TF/FVIIa complex as compared to free sTF” value in series [4] is approximately 20 fold. The binding result in series [5] is “no binding (tested: 800 nM)”. The molecule further displayed a N in [7] of 1.14. Moreover, the values for the ΔH in [9] and in series [10] were -21800 and -28600, respectively. Also, in series [10], the ΔS is -60.
With B2, the Kd in series [12] is 13 nM.
